Assay results from US20180155451A1 (published 2018).

T1: FcγRIIb (human, UniProt P31994 43-217)
T1 construct: extracellular domain; also called FcgRIIb; 2b; not shown: His tag at the C terminus
T1 sequence (looked up): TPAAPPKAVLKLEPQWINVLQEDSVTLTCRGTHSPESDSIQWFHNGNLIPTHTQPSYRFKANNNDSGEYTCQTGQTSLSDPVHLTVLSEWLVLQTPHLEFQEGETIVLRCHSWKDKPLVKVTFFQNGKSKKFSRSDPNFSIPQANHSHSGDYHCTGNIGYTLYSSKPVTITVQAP

T2: FcγRIIb (human, UniProt P31994 43-217)
T2 construct: extracellular domain; Soluble extracellular domain with C-terminal His tag, used as analyte in Biacore; also called FcgRIIb; 2b; not shown: His tag attached to the C terminus
T2 sequence (looked up): T1 sequence (looked up)

B1: GpH7-A5/GpH7-B3 variant D265_01G/GpL16-k0 (antibody, human IgG1, kappa)
heavy 1: not shown
heavy 2: not shown
light: DIVMTQSPLSLPVTPGEPASISCQASESLVHSNRNTYLHWYLQKPGQSPQLLIYKVSNRFSGVPDRFSGSGSGTDFTLKISRVEAEDVGVYYCSQNTHVPPTFGQGTKVEIERTVAAPSVFIFPPSDEQLKSGTASVVCLLNNFYPREAKVQWKVDNALQSGNSQESVTEQDSKDSTYSLSSTLTLSKADYEKHKVYACEVTHQGLSSPVTKSFNRGEC
notes: He Ab: mutation only in the GpH7-B3 H chain; EU numbering; also called He Ab
B2: GpH7-A5/GpH7-B3 variant D265_10E/GpL16-k0 (antibody, human IgG1, kappa)
heavy 1: not shown
heavy 2: not shown
light: B1 light
notes: as for B1
B3: GpH7-A5/GpH7-B3 variant D265_18N/GpL16-k0 (antibody, human IgG1, kappa)
heavy 1: not shown
heavy 2: not shown
light: B1 light
notes: as for B1
B4: GpH7-A5/GpH7-B3 variant D265_16H/GpL16-k0 (antibody, human IgG1, kappa)
heavy 1: not shown
heavy 2: not shown
light: B1 light
notes: as for B1
B5: GpH7-A5/GpH7-B3 variant D265_04F/GpL16-k0 (antibody, human IgG1, kappa)
heavy 1: not shown
heavy 2: not shown
light: B1 light
notes: as for B1
B6: GpH7-A5/GpH7-B3 variant D265_08L/GpL16-k0 (antibody, human IgG1, kappa)
heavy 1: not shown
heavy 2: not shown
light: B1 light
notes: as for B1
B7: GpH7-A5/GpH7-B3 variant D265_19Q/GpL16-k0 (antibody, human IgG1, kappa)
heavy 1: not shown
heavy 2: not shown
light: B1 light
notes: as for B1
B8: GpH7-A5/GpH7-B3 variant D265_13S/GpL16-k0 (antibody, human IgG1, kappa)
heavy 1: not shown
heavy 2: not shown
light: B1 light
notes: as for B1
B9: GpH7-A5/GpH7-B3 variant D265_02A/GpL16-k0 (antibody, human IgG1, kappa)
heavy 1: not shown
heavy 2: not shown
light: B1 light
notes: as for B1
B10: GpH7-A5/GpH7-B3 variant D265_15Y/GpL16-k0 (antibody, human IgG1, kappa)
heavy 1: not shown
heavy 2: not shown
light: B1 light
notes: as for B1
B11: GpH7-A5/GpH7-B3 variant D265_07I/GpL16-k0 (antibody, human IgG1, kappa)
heavy 1: not shown
heavy 2: not shown
light: B1 light
notes: as for B1
B12: GpH7-A5/GpH7-B3 variant D265_11K/GpL16-k0 (antibody, human IgG1, kappa)
heavy 1: not shown
heavy 2: not shown
light: B1 light
notes: as for B1
B13: GpH7-A5/GpH7-B3 variant D265_14T/GpL16-k0 (antibody, human IgG1, kappa)
heavy 1: not shown
heavy 2: not shown
light: B1 light
notes: as for B1
B14: GpH7-A5/GpH7-B3 variant D265_03V/GpL16-k0 (antibody, human IgG1, kappa)
heavy 1: not shown
heavy 2: not shown
light: B1 light
notes: as for B1
B15: GpH7-A5/GpH7-B3 variant D265_06M/GpL16-k0 (antibody, human IgG1, kappa)
heavy 1: not shown
heavy 2: not shown
light: B1 light
notes: as for B1
B16: GpH7-A5/GpH7-B3 variant D265_12R/GpL16-k0 (antibody, human IgG1, kappa)
heavy 1: not shown
heavy 2: not shown
light: B1 light
notes: as for B1
B17: GpH7-A5/GpH7-B3 variant S267_09D/GpL16-k0 (antibody, human IgG1, kappa)
heavy 1: not shown
heavy 2: not shown
light: B1 light
notes: Heterodimerized IgG1; mutation in the GpH7-B3 H chain only; also called He Ab
B18: GpH7-A5/GpH7-B3 variant V266_06M/GpL16-k0 (antibody, human IgG1, kappa)
heavy 1: not shown
heavy 2: not shown
light: B1 light
notes: as for B17
B19: GpH7-A5/GpH7-B3 variant S267_19Q/GpL16-k0 (antibody, human IgG1, kappa)
heavy 1: not shown
heavy 2: not shown
light: B1 light
notes: as for B17
B20: GpH7-A5/GpH7-B3 variant S239_10E/GpL16-k0 (antibody, human IgG1, kappa)
heavy 1: not shown
heavy 2: not shown
light: B1 light
notes: as for B17
B21: GpH7-A5/GpH7-B3 variant S267_07I/GpL16-k0 (antibody, human IgG1, kappa)
heavy 1: not shown
heavy 2: not shown
light: B1 light
notes: as for B17
B22: GpH7-A5/GpH7-B3 variant S239_08L/GpL16-k0 (antibody, human IgG1, kappa)
heavy 1: not shown
heavy 2: not shown
light: B1 light
notes: as for B17
B23: GpH7-A5/GpH7-B3 variant S239_09D/GpL16-k0 (antibody, human IgG1, kappa)
heavy 1: not shown
heavy 2: not shown
light: B1 light
notes: as for B17
B24: GpH7-A5/GpH7-B3 variant V266_12R/GpL16-k0 (antibody, human IgG1, kappa)
heavy 1: not shown
heavy 2: not shown
light: B1 light
notes: as for B17
B25: GpH7-A5/GpH7-B3 variant S267_02A/GpL16-k0 (antibody, human IgG1, kappa)
heavy 1: not shown
heavy 2: not shown
light: B1 light
notes: as for B17
B26: GpH7-A5/GpH7-B3 variant S239_01G/GpL16-k0 (antibody, human IgG1, kappa)
heavy 1: not shown
heavy 2: not shown
light: B1 light
notes: as for B17
B27: GpH7-A5/GpH7-B3 variant S267_03V/GpL16-k0 (antibody, human IgG1, kappa)
heavy 1: not shown
heavy 2: not shown
light: B1 light
notes: as for B17
B28: GpH7-A5/GpH7-B3 variant S267_06M/GpL16-k0 (antibody, human IgG1, kappa)
heavy 1: not shown
heavy 2: not shown
light: B1 light
notes: as for B17
B29: GpH7-A5/GpH7-B3 variant S267_10E/GpL16-k0 (antibody, human IgG1, kappa)
heavy 1: not shown
heavy 2: not shown
light: B1 light
notes: as for B17
B30: GpH7-A5/GpH7-B3 variant V266_08L/GpL16-k0 (antibody, human IgG1, kappa)
heavy 1: not shown
heavy 2: not shown
light: B1 light
notes: as for B17
B31: GpH7-A5/GpH7-B3 variant V266_07I/GpL16-k0 (antibody, human IgG1, kappa)
heavy 1: not shown
heavy 2: not shown
light: B1 light
notes: as for B17
B32: GpH7-A5/GpH7-B3 variant P238_15Y/GpL16-k0 (antibody, human IgG1, kappa)
heavy 1: not shown
heavy 2: not shown
light: B1 light
notes: as for B17
B33: GpH7-A5/GpH7-B3 variant P238_10E/GpL16-k0 (antibody, human IgG1, kappa)
heavy 1: not shown
heavy 2: not shown
light: B1 light
notes: as for B17

target: T3, FcγRIa (human, UniProt P12314 16-292); test: SPR; He/Con_1a divided by He/Con_2b (FcγRIIb as reference)
T3 construct: extracellular domain; also called FcgRI; 1a; not shown: His tag at the C terminus
T3 sequence (P12314 16-292): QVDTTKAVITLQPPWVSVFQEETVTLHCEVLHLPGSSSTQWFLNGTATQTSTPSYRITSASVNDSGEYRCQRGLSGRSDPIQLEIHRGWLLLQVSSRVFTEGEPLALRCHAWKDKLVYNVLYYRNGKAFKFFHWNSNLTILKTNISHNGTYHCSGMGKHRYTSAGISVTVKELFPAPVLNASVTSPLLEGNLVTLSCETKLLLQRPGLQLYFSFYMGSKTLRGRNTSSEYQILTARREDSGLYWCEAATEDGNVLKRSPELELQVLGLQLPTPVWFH

Binder | Ia/IIb He_1a/2b [ratio]
B1 | 4.95
B2 | 2.66
B3 | 4.52
B4 | 2.23
B5 | 16.8
B6 | 12.4
B7 | 2.66
B8 | 6.07
B9 | 4.25
B10 | 73.5
B11 | 41.2
B12 | 2.9
B13 | 4.9
B14 | 17.3
B15 | 7.57
B16 | 2.96

target: T3, FcγRIa; test: SPR (Biacore), captured antibody, soluble FcγR; relative to GpH7-A5/GpH7-B3/GpL16-k0

Binder | He/Con_1a
B1 | 79.9 relative, HeCon Ab = 100
B2 | 101 relative, HeCon Ab = 100
B3 | 27.7 relative, HeCon Ab = 100
B4 | 85.4 relative, HeCon Ab = 100
B5 | 53 relative, HeCon Ab = 100
B6 | 56.8 relative, HeCon Ab = 100
B7 | 88.8 relative, HeCon Ab = 100
B8 | 68.7 relative, HeCon Ab = 100
B9 | 84.5 relative, HeCon Ab = 100
B10 | 44.3 relative, HeCon Ab = 100
B11 | 54.4 relative, HeCon Ab = 100
B12 | 43.2 relative, HeCon Ab = 100
B13 | 78.5 relative, HeCon Ab = 100
B14 | 55.7 relative, HeCon Ab = 100
B15 | 75.7 relative, HeCon Ab = 100
B16 | 44.3 relative, HeCon Ab = 100

target: T1, FcγRIIb; test: as above

Binder | He/Con_2b
B1 | 16.1 relative, HeCon Ab = 100
B2 | 38.2 relative, HeCon Ab = 100
B3 | 6.1 relative, HeCon Ab = 100
B4 | 38.3 relative, HeCon Ab = 100
B5 | 3.2 relative, HeCon Ab = 100
B6 | 4.6 relative, HeCon Ab = 100
B7 | 33.4 relative, HeCon Ab = 100
B8 | 11.3 relative, HeCon Ab = 100
B9 | 19.9 relative, HeCon Ab = 100
B10 | 0.6 relative, HeCon Ab = 100
B11 | 1.3 relative, HeCon Ab = 100
B12 | 14.9 relative, HeCon Ab = 100
B13 | 16 relative, HeCon Ab = 100
B14 | 3.2 relative, HeCon Ab = 100
B15 | 10 relative, HeCon Ab = 100
B16 | 15 relative, HeCon Ab = 100

target: T4, FcγRIa (human, UniProt P12314 16-292); test: SPR (Biacore); He/Con_1a divided by He/Con_2b (FcγRIa against FcγRIIb)
T4 construct: extracellular domain; Soluble extracellular domain with C-terminal His tag, used as analyte in Biacore; also called FcgRI; 1a; not shown: His tag attached to the C terminus
T4 sequence (P12314 16-292): as above

Binder | Ia/IIb He_1a/2b [ratio]
B17 | 0.35
B18 | 0.4
B19 | 0.47
B20 | 0.58
B21 | 0.52
B22 | 0.71
B23 | 0.49
B24 | -55.6
B25 | 0.45
B26 | 0.7
B27 | 0.55
B28 | 0.51
B29 | 0.28
B30 | 0.42
B31 | 0.65
B32 | 0.46
B33 | 0.44

target: T4, FcγRIa; test: SPR (Biacore), antibody captured on antigen peptide, FcγR as analyte; relative to GpH7-A5/GpH7-B3/GpL16-k0 = 100

Binder | He/Con_1a
B17 | 110 % of control
B18 | 99.7 % of control
B19 | 102 % of control
B20 | 105 % of control
B21 | 100 % of control
B22 | 99.8 % of control
B23 | 101 % of control
B24 | 59.2 % of control
B25 | 109 % of control
B26 | 101 % of control
B27 | 106 % of control
B28 | 106 % of control
B29 | 106 % of control
B30 | 98.1 % of control
B31 | 99.3 % of control
B32 | 101 % of control
B33 | 102 % of control

target: T2, FcγRIIb; test: as above

Binder | He/Con_2b
B17 | 310 % of control
B18 | 251 % of control
B19 | 218 % of control
B20 | 181 % of control
B21 | 192 % of control
B22 | 140 % of control
B23 | 206 % of control
B24 | -1.1 % of control
B25 | 243 % of control
B26 | 144 % of control
B27 | 192 % of control
B28 | 210 % of control
B29 | 379 % of control
B30 | 236 % of control
B31 | 152 % of control
B32 | 218 % of control
B33 | 232 % of control
